From publication PMC10604209, “Thermal Characterization and Interaction of the Subunits from the Multimeric Bacteriophage Endolysin PlyC” (Biology, 2023)

B1: PlyCA, the catalytic subunit of the endolysin PlyC (enzyme, UniProt Q7Y3F1 1-465, looked up)
chain: MSKKYTQQQYEKYLAQPANNTFGLSPQQVADWFMGQAGARPVINSYGVNASNLVSTYIPKMQEYGVSYTLFLMYTVFEGGGAGNWINHYMYDTGSNGLECLEHDLQYIHGVWETYFPPALSAPECYPATEDNAGALDRFYQSLPGRTWGDVMIPSTMAGNAWVWAYNYCVNNQGAAPLVYFGNPYDSQIDSLLAMGADPFTGGSITGDGKNPSVGTGNATVSASSEANREKLKKALTDLFNNNLEHLSGEFYGNQVLNAMKYGTILKCDLTDDGLNAILQLIADVNLQTNPNPDKPTVQSPGQNDLGSGSDRVAANLANAQAQVGKYIGDGQCYAWVGWWSARVCGYSISYSTGDPMLPLIGDGMNAHSIHLGWDWSIANTGIVNYPVGTVGRKEDLRVGAIWCATAFSGAPFYTGQYGHTGIIESWSDTTVTVLEQNILGSPVIRSTYDLNTFLSTLTGLITFK
B2: PlyCB, the cell wall binding subunit of the endolysin PlyC (PlyCB CBD, an octamer) (natural protein)
chain: MSKINVNVENVSGVQGFLFHTDGKESYGYRAFINGVEIGIKDIETVQGFQQIIPSINISKSDVEAIRKAMKK
notes: PlyCB, 8 kDa subunit of the streptococcal bacteriophage endolysin PlyC; Above about 74 °C in PBS the octamer is said to dissociate reversibly into a monomeric intermediate state; also called PlyCB octamer; PlyCB subunit; source: also as a subunit of the purified recombinant PlyC holoenzyme

What was measured:
[1] = biological target: B2; experiment: cell-based or functional assay
[2] = biological target: the molecule itself; experiment: cross-linking; PlyCB CBD 1 mg/mL in PBS heated 10 min at temperatures up to 74.4 °C, amine cross-linking with 1 mM BS3 for 10 min, quenched with Tris, cooled on ice, SDS-PAGE
[3] = biological target: B1; experiment: SEC; 500 uL ice-cold 19.5 uM PlyCA added rapidly to 500 uL 15.6 uM PlyCB CBD in PBS heated to 75 °C, cooled on ice 5 min, centrifuged, HiPrep 16/60 Sephacryl S-200 HR in PBS; the peak corresponding to native PlyC analysed by SDS-PAGE; settings: both partners purified

Binder	bacteriolytic activity toward S. pyogenes (turbidity reduction assay) of ice-cold PlyCA mixed about 1:1 with PlyCB CBD heated to 75 °C and then rapidly cooled, relative to native PlyC [1]	binding result [2]	binding result [3]
B1	35 % of the relative bacteriolytic activity of native PlyC	–	–
B2	–	binds	binds
